{
  "source": "patent US20140348781A1",
  "key": {"IL9 receptor (IL9R)": {"target": "IL9 receptor (IL9R) (UniProt Q01114)", "sequence (Q01114 38-468 limits assumed, chain 1 of 2)": "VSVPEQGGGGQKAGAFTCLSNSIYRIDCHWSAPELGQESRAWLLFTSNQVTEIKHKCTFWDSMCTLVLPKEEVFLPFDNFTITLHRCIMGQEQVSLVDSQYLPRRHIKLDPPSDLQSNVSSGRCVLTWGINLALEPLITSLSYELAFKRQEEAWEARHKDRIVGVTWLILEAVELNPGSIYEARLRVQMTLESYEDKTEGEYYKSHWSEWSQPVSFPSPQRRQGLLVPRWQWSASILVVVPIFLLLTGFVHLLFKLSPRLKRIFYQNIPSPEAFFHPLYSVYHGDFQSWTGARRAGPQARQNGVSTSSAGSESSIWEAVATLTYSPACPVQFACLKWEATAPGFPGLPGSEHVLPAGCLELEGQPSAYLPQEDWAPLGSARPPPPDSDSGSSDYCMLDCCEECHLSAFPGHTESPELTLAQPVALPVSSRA", "sequence (P34902 23-369 limits assumed, chain 2 of 2, further chain)": "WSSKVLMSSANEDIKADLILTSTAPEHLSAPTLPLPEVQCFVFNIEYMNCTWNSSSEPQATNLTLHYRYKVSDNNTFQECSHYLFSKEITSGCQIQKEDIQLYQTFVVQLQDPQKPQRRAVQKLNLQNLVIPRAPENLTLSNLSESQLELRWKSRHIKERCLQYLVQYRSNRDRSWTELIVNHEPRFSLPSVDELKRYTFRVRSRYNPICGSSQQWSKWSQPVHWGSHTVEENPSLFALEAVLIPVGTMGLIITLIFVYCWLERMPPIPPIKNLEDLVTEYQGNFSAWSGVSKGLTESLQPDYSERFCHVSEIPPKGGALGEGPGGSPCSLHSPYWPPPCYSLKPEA", "assay": "cell-based or functional assay"}, "GMCSF receptor (GMCSFR)": {"target": "GMCSF receptor (GMCSFR) (UniProt Q00941)", "sequence (Q00941 30-388, chain 1 of 2)": "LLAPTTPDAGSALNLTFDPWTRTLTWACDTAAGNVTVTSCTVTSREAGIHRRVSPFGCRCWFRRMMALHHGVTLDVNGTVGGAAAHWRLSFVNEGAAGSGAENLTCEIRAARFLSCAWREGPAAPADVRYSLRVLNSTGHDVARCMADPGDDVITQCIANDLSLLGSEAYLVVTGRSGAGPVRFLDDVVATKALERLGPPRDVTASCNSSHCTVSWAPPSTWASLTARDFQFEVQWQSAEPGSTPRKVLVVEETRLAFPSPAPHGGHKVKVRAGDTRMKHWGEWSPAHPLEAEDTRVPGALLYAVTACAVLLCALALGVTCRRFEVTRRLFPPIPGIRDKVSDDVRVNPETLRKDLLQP", "sequence (P26955 23-896, chain 2 of 2, further chain)": "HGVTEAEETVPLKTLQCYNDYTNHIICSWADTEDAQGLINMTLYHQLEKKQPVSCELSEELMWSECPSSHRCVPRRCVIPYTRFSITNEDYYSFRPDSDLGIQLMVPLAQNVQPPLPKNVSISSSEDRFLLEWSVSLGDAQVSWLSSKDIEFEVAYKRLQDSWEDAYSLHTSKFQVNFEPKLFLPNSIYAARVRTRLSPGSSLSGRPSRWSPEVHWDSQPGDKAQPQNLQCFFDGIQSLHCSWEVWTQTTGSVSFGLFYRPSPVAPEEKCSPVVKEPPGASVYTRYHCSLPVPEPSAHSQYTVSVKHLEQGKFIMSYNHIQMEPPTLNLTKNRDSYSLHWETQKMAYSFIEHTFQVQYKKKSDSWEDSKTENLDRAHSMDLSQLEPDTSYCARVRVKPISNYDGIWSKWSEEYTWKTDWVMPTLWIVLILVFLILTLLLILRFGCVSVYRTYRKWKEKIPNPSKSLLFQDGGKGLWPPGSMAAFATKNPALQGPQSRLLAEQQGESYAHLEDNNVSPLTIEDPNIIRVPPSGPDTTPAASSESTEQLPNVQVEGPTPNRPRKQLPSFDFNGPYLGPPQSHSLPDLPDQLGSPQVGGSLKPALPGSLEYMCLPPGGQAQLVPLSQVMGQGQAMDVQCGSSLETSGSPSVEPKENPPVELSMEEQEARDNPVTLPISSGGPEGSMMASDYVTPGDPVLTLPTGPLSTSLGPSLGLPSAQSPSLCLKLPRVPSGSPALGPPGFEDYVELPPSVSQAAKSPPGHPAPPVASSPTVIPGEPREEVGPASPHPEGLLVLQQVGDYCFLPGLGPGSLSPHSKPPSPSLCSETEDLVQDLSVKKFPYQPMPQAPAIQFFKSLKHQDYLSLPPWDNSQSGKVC", "assay": "cell-based or functional assay"}},
  "data": [
    {"substance": "mouse GIFT9 (fusion of mouse GMCSF and mouse IL9) (ligand)", "values": [
      {"measurement": "proliferative rate of bone marrow derived mast cells (MTT assay, 5 days)", "setting": "IL9 receptor (IL9R)", "value": 100, "unit": "%"},
      {"measurement": "proliferative rate of bone marrow derived mast cells (MTT assay, 5 days)", "setting": "GMCSF receptor (GMCSFR)", "value": 100, "unit": "%"}
    ]}
  ]
}
